T1: MUC16-nub ectodomain antigen (human MUC16 membrane proximal domain P13810-P14451 having a myc-myc-his tag) (human)
T1 chain: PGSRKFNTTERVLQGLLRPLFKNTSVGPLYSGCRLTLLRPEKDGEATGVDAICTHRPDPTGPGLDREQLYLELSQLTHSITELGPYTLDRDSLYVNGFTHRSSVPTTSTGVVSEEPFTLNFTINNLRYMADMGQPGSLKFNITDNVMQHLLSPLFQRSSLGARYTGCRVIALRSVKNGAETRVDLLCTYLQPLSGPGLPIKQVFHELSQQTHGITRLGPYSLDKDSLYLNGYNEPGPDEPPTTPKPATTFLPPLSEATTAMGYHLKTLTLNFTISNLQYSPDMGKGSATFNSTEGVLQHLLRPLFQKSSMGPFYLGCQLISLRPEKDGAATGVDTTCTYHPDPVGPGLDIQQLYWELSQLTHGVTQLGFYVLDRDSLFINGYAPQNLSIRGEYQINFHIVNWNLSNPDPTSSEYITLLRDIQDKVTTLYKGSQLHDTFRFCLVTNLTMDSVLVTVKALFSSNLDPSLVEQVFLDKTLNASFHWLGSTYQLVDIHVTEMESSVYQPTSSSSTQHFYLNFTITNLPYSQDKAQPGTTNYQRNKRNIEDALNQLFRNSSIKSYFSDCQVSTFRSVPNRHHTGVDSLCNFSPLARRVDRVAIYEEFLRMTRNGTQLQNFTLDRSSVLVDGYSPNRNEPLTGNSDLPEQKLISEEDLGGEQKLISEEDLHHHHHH

T2: MUC16 ectodomain stably expressed on engineered RD tumor cells (high, medium or low levels) (human)
T2 chain: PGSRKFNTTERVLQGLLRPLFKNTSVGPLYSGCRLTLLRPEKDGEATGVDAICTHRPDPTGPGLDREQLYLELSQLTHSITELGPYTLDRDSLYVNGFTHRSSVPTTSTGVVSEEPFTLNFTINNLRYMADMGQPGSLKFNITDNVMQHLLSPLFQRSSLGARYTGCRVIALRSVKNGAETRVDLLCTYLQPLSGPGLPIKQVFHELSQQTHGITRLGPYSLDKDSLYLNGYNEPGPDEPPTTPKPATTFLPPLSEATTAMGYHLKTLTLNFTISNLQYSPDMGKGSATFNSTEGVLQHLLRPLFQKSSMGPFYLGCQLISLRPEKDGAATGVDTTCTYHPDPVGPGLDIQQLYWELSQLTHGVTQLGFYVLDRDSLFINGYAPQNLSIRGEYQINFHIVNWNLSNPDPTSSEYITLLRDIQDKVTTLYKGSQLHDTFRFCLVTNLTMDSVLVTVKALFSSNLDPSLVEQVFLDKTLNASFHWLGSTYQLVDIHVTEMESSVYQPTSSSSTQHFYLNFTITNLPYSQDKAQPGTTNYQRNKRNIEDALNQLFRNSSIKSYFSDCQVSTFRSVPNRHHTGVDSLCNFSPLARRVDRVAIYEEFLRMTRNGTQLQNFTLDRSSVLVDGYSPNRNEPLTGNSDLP

B1: pBB4015 CAR (8808 L-H; BBz) (other)
chain: EIVLTQSPDTLSLSPGERATLSCRASQSLSSNYLAWYRQKPGQAPRLLIYGISSRATGIPDRFSGSGSGTDFTLTISRLEPEDFAVYYCQQYGSSPWTFGQGTKVEIKGGGGSGGGGSGGGGSQVQLVESGGGVVQPGRSLRLSCVASGFTFSNYGIHWVRQAPGKGLEWVAVISDDGSFKFYADSVKGRFTISRDNSKNTLYLQMNSLRVEDSAVYHCAKWQHNWNDGGFDYWGQGTLVTVSSTTTPAPRPPTPAPTIASQPLSLRPEACRPAAGGAVHTRGLDFACDIYIWAPLAGTCGVLLLSLVITLYCKRGRKKLLYIFKQPFMRPVQTTQEEDGCSCRFPEEEEGGCELRVKFSRSADAPAYQQGQNQLYNELNLGRREEYDVLDKRRGRDPEMGGKPRRKNPQEGLYNELQKDKMAEAYSEIGMKGERRRGKGHDGLYQGLSTATKDTYDALHMQALPPR
B2: Anti-MUC16 7135 (antibody, V domains shown)
VH: EVQLVESGGGLVQAGGSLRLSCAASGFTFSYHEMNWVRQAPGKGLEWVSYIGSRGTTKHYADPVKGRFTISRDNAKNSLYLQMNSLRAEDTAVYYCASEVGSILGYSMDVWGQGTTVTVSS
VL: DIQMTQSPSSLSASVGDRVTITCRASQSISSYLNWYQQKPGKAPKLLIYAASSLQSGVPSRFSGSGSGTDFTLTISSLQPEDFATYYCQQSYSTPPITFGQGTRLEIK
notes: also called BBz) and pBB4001 (7135 L-H
B3: Anti-MUC16 7138 (antibody, V domains shown)
VH: QVQLVQSGAEVKKPGASVKVSCKASGYTFTSSDINWVRQATGQGLEWVGWMNPNYGYTGSARKFQDRVTMTRNTSLSTAYLELHSLRSEDTAVYYCARVTYCSSVTSCFRPFTYWGQGTLVTVSA
VL: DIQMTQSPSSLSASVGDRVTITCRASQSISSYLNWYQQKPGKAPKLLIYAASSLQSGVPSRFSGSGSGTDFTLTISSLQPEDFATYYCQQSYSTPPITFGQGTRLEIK
notes: also called BBz) and pBB4003 (7138 L-H
B4: Anti-MUC16 8799 (antibody, V domains shown)
VH: EVQLVESGGGLEQPGRSLRLSCTASGFAFGDHTMSWVRQAPGKGLEWVGFIRSRAYGGTTEYAASVKGRFTISRDDSKSIAYLQMDSLKTEDTAVYYCTSGGYDSSLHYYYYYHGMDVWGRGTTVTVSS
VL: EIVLTQSPGTLSLSPGERATLSCRASQSITSSYLAWYQQRPGQAPRLLIYGASSRATGIPDRFSGSGSGTDFTLTISRLEPEDFAVYYCQQYGSSPWTFGQGTKVEIK
notes: also called BBz) and pBB4011 (8799 L-H
B5: Anti-MUC16 8808 (antibody, V domains shown)
VH: QVQLVESGGGVVQPGRSLRLSCVASGFTFSNYGIHWVRQAPGKGLEWVAVISDDGSFKFYADSVKGRFTISRDNSKNTLYLQMNSLRVEDSAVYHCAKWQHNWNDGGFDYWGQGTLVTVSS
VL: EIVLTQSPDTLSLSPGERATLSCRASQSLSSNYLAWYRQKPGQAPRLLIYGISSRATGIPDRFSGSGSGTDFTLTISRLEPEDFAVYYCQQYGSSPWTFGQGTKVEIK
notes: also called BBz) and pBB4015 (8808 L-H
B6: Anti-MUC16 8810 (antibody, V domains shown)
VH: EVQLVESGGALVQPGGSLRLSCAASGFTFSSYAMHWVRQAPGKGLEFVSTISYNGGTTYYADSVKGRFTVSRDNSKNTVFLRMGSLRTEDMAVYYCARAAAPWGQGTLVTVSS
VL: EIVLTQSPDTLSLSPGERATLSCRASQSVSNRYLAWYQQKPGQAPRLLIYGASSRATGIPDRFSGSGSGTDFTLTISRLEPEDFAVYYCHQYGSSPWTFGQGTKVEIK
notes: also called BBz) and pBB4017 (8810 L-H
B7: Anti-MUC16 8794 (antibody, V domains shown)
VH: QVQLVESGGGLVKPGGSLRLSCAASGFTFRDYSMSWIRQAPGKGLEWVSYVTFFNSAIYYADSVKGRFTISRDNAKNSLYLQMNSLRAEDTAVYYCAREREPIVGGFDYWGQGTLVTVSS
VL: DIQMTQSPSSLSASVGDRVTITCRASQSINSYLNWYQQKPGKAPKLLIYAASSLQGGVPSRFSGGGSGTDFTLTITSLQPEDFATFYCQQSYSSPPITFGQGTRLEIK
notes: also called BBz) and pBB4009 (8794 L-H
B8: Anti-MUC16 8755 (antibody, V domains shown)
VH: EVQLVESGGGLVQPGRSLRLSCAASGFTFNDYAMHWVRQSPGKGLEWVSGIDWNGGSIDYADSVKGRFTISRDTAKNSLYLQMNSLKVEDTALYYCAKDIGHWNYIGGMDVWGQGTTVTVSS
VL: DIQMTQSPSSLSASVGDRVTITCRASQSINIYLNWYQQKPGKAPKFLIYAASSLQTGVPSRFSGSGSGTDFTLTISSLEPEDFATYYCQHSYSTPPITFGQGTRLEIK
notes: also called BBz) and pBB4005 (8755 L-H
B9: Anti-MUC16 8813 (antibody, V domains shown)
VH: QVQLVQSGAEVKKPGASVKVSCKAFGYTLTGYYIHWVRQAPGQGLEWMGWINPNNGGTNYAQKFQGRVTMTRDKSISTAYMELSRLRSDDTAVYYCARSLELLPDGMDVWGQGTTVTVSS
VL: not shown
notes: also called BBz) and pBB4019 (8813 L-H
B10: Anti-MUC16 8767 (antibody, V domains shown)
VH: QVQLVESGGGLVKPGGSLRLSCAASGFTFSNYYMSWVRQAPGKGLEWISYISGRGSTIFYADSVKGRITISRDNAKNSLFLQMNSLRAEDTAVYFCVKDRGGYSPYWGQGTLVTVSS
VL: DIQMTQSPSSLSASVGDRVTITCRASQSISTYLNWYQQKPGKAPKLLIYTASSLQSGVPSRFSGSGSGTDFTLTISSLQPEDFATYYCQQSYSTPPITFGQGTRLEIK
notes: also called BBz) and pBB4007 (8767 L-H
B11: Anti-MUC16 8804 (antibody, V domains shown)
VH: EVQLVESGGGLVQPGRSLRLSCTGSGLTFGDYGMSWVRQAPGKGLEWVGFIRSKGYGGTTEYAASVKGRFTISRDDSKSTAYLQMNSLKTEDTAVYYCTSGGYDSSVHYYYYYYAMDVWGQGTTVTVSS
VL: not shown
notes: also called BBz) and pBB4013 (8804 L-H

For one assay, the target named is T1, MUC16-nub ectodomain antigen (human …). Description: cell-based or functional assay.
In the case of B1, the “EC50 (read off the curve); IFNγ release of BB4015 CAR T cells against the coating concentration of MUC16 nub” value is ~0.05 µg/mL.

The target of a further assay is T2, MUC16 ectodomain stably expressed on …. Description: cell-based or functional assay.
As to B1, the “percent (%) of tumor cell killing, RD low antigen positive tumor cells, 2.5:1 E:T ratio, 72 hours, impedance analyzer” value is < 60 % cytotoxicity and the “percent (%) of tumor cell killing, RD medium or high antigen positive tumor cells, all E:T ratios, 72 hours, impedance analyzer” value was > 70 % cytotoxicity.

Another assay addresses T1, MUC16-nub ectodomain antigen (human …). Description: Binder Kd of Table 3; method and antigen not described.
In the case of B2, binding was characterised by a dissociation constant (Kd) of 10.5 nM.

For B3, the Kd stood at 0.321 nM.

On to B4, for which binding was characterised by a dissociation constant (Kd) of 0.826 nM.

As for B5, binding was characterised by a dissociation constant (Kd) of 0.277 nM.

The molecule B6 gave a Kd of 1.12 nM.

B7: the affinity, expressed as Kd, was 0.554 nM.

B8 gave a Kd of 0.124 nM.

B9 gave a Kd of 0.32 nM.

In turn, B10 returned a Kd of 1.01 nM.

Take B11: the Kd amounted to 1.86 nM.

Usually Kd stands for a measure of binding affinity in units of concentration.

The values above are taken from patent US20250082756A1 (Regeneron, published 2025).
